Biological target: T1, full-length His-tagged pUL89 (wild-type) (human cytomegalovirus, AD169 genotype, UniProt P16732 1-674)
T1 construct: mature; It was expressed from pCI-neo His-pUL89 in HEK293 cells and purified on Ni resin; also called His-pUL89; 6xHis-pUL89; not shown: 6xHis tag
T1 sequence: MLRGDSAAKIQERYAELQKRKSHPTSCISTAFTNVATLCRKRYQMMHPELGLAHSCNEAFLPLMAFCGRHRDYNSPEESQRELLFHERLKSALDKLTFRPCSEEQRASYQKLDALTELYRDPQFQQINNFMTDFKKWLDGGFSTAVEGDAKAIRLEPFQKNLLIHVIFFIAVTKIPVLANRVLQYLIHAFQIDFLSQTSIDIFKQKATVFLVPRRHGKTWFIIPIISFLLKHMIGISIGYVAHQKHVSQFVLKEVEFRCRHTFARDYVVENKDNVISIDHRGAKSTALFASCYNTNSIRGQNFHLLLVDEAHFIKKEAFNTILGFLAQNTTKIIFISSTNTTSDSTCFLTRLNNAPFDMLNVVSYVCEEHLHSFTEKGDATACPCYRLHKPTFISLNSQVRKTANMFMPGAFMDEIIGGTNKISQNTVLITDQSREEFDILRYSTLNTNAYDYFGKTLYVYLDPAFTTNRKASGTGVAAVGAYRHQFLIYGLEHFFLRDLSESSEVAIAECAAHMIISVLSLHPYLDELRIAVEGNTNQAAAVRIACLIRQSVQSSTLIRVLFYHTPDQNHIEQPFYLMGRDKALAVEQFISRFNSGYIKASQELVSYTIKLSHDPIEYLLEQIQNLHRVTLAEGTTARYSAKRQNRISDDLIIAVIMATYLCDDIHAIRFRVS
Assay: Alpha proximity assay, purified proteins; negative controls are each protein alone

B1: full-length amino-terminal 3xHA-tagged pUL56 (wild-type) (other)
chain: MEMNLLQKLCVVCSKCNEYAMELECLKYCDPNVLLAESTPFKRNAAAIVYLYRKIYPEVVAQNRTQSSLLTLYLEMLLKALHEDTALLDRALMAYSRQPDRAAFYRTVLRLDRCDRHHTVELQFTDNVRFSVSLATLNDIERFLCKMNYVYGILAPEAGLEVCAQLLELLRRLCGISPVARQEVYVEGTTCAQCYEELTIIPNQGRSLNKRLQGLLCNHIAVHRPSSQSDVNIQTVEQDLLDLTTRIPHLAGVLSALKSLFSSSSAYHSYIQEAEEALREYNLFTDIPERIYSLSDFTYWSRTSEVIVKRVGITIQQLNVYHQLCRALMNGISRHLYGEDVEDIFVLGEKALDGEERMFVGSVFAAPNRIIDLITSLSIQAFEDNPVFNKLHESNEMYTKIKHILEEIRRPLPDGTGGDGPEGEAIHLRGREAMSGTGTTLMTASNSSNSSTHSQRNNGGGGRARGGGKKAVGGGANGQDGDGSENGLRVRNCDEHEALDLVDARSRIHNVTREVNVRKRAYLQKVSEVGYGKVIRCIKTQERLTSKLIDVNLVGPLCLDFISKLMNGFLYRSQYHQDQDVVDVGDQFTYDEHLYVVNNLIHKSLPVESLPLLGQQIYELCNGPLFTHCTDRYPLSHNVDMAYACDNAGVLPHVKDDLVKCAEGTVYPSEWMVVKYMGFFNFSDCQDLNVLQKEMWMHVRELVLSVALYNETFGKQLSIACLRDELHPDRDVILTYNKEWPLLLRHEGNLYKSKDLYLLLYRHLSRPDESGDVPTAPVAKPSTLTAAAAVSGAFREPDRPWLPSPYPSSSTAGVSRRVRATRKRPRRASSLLDLARDEHGIQDLVPGSLR
notes: also called 3xHA-pUL56; HA-pUL56; not shown: amino-terminal 3xHA tag
fold of Alpha signal over negative controls: > 2 fold
